Experimental data reported in the DeepSol protein solubility set.

Experiment: soluble on expression in E. coli; label from the status in PepcDB or PDB records

Sequence | soluble on expression in E. coli
MPKRTDIKSILILGAGPIVIGQACEFDYSGAQACKALREEGYRVILVNSNPATIMTDPEMADATYIEPIHWEVVRKIIEKERPDAVLPTMGGQTALNCALELERQGVLEEFGVTMIGATADAIDKAEDRRRFDVAMKKIGLETARSGIAHTMEEALAVAADVGFPCIIRPSFTMGGSGGGIAYNREEFEEICARGLDLSPTKELLIDESLIGWKEYEMEVVRDKNDNCIIVCSIENFDAMGIHTGDSITVAPAQTLTDKEYQIMRNASMAVLREIGVETGGSNVQFAVNPKNGRLIVIEMNPRVSRSSALASKATGFPIAKVAAKLAVGYTLDELMNDITGGRTPASFEPSIDYVVTKIPRFNFEKFAGANDRLTTQMKSVGEVMAIGRTQQESLQKALRGLEVGATGFDPKVSLDDPEALTKIRRELKDAGADRIWYIADAFRAGLSVDGVFNLTNIDRWFLVQIEELVRLEEKVAEVGITGLNADFLRQLKRKGFADARLAKLAGVREAEIRKLRDQYDLHPVYKRVDTCAAEFATDTAYMYSTYEEECEANPSTDREKIMVLGGGPNRIGQGIEFDYCCVHASLALREDGYETIMVNCNPETVSTDYDTSDRLYFEPVTLEDVLEIVRIEKPKGVIVQYGGQTPLKLARALEAAGVPVIGTSPDAIDRAEDRERFQHAVERLKLKQPANATVTAIEMAVEKAKEIGYPLVVRPSYVLGGRAMEIVYDEADLRRYFQTAVSVSNDAPVLLDHFLDDAVEVDVDAICDGEMVLIGGIMEHIEQAGVHSGDSACSLPAYTLSQEIQDVMRQQVQKLAFELQVRGLMNVQFAVKNNEVYLIEVNPRAARTVPFVSKATGVPLAKVAARVMAGKSLAEQGVTKEVIPPYYSVKEVVLPFNKFPGVDPLLGPEMRSTGEVMGVGRTFAEAFAKAQLGSNSTMKKHGRALLSVREGDKERVVDLAAKLLKQGFELDATHGTAIVLGEAGINPRLVNKVHEGRPHIQDRIKNGEYTYIINTTSGRRAIEDSRVIRRSALQYKVHYDTTLNGGFATAMALNADATEKVISVQEMHAQIK | soluble
MPKSFYFCKTLERLTLSDKILVDVPCQVSLPSLRELDLFCVVYKDEDSHVKLLSSCPVLKHLKVTRNRRVEDNVRTFRVEVPSLLRLDYKAGMMFREDSDMSDPFLVTDTPNLLSLHIFDTVGYSLSVWYMPHLVTVVTDELFPSEKFMRPLSSVKYLALSPFDTMVPWCDAVNNYSRLVECMIHLSEYDLLESLLVLLSKCSKLKVFLVDSDIPRWNHDPALWNQPSSIPRCLSSHLEIFEWDGYVGREDEKKIIRYILENSKYLKTAGISPNSTFSGEEKQKMEELESMHRTPTSVLLSSARMSFRY | not soluble
MPKSLYNYHEFIHLSHDGRIPFEKIEVPKNAILLNNSADLDNYVYLIIDGYVALFLNDGKEQPKIYSIQGEGAFLNYFTLLDHSINRFRYKTLSKCFLYRYSKLDIEYFLSMFPENFGFQFFIMKNQTTHIYFKSLMASSPASEKLMLTFSNLARLHGIPTEDDTVILPPAIKTSHLLSYSNLSKSCFYKDLQYLKTTNQIEKQDNSWIIHNKELNLMLQNGETYI | not soluble
MPKVYNSIVVDAPVERVWSRIRNFHDFSWAPSLIKSCKKVGGGGGYSVGARRLLNGEFLDTLIAYSEIERRIMYSMDEGPSPVSSGEIYNYVGNLHLLPVTIDDTTFVEWSGSWESASTEAVEYMNTVYRSLLADLAAEFTSESRRSEWIDQLEHHHHHH | soluble
MPLDSPAKLEFPLHWAVYVDCKDELNELLKNKSTLEIDKIDPRGRTPLMLAVTLQHFDCARLLMDAGADASIPNKEMWSVSNEAVAQGNEQFIQEVIHHRDYQRANRGAHAMKRSLEKLAEVPDFFCEMNWDFSSWVPFLSQACPSDCHKIYKRGSSVRIDTTLVSFEGASWVRGNQSYIFRLSRNGYAEFIVLDHDERIAAVQELRDDDIFNEYRPLPSALDDRLRNTISTTYIDVENIGFERTSRGFLSWFSSGETNETVDGYDCKVLNASNVHLVTKRRFDHLSSEARARLAQEEASESKAVTSFKKMMSTNKTDENTTRDLYEEGLSPDSYLDPHYEFDTGCDIGKRREVVKKSNAFQATLWMADEYPLNLHDQIIPIVELMAVNSPHFARLHNFIRLQLPAGFPVKIEIPLFHIVSARIAFQNINSPGKHVTPIDNQNVDIEEEAFEIPDGYAIDDDGRYGITWEDDDDRNNRNNRNQVANGNTSRRGLGNNYSDDMLLQYAIQQSLLESTARQPSRVQEEEYVDILEQIESVPVNPETDFYRAIRDSQVEEDRRRREDEQYEEDLRKVLELSKAEQ | not soluble
MPLEGEYEPSPTQWVRDQVELYESSGGTKGTTLMDTGLPVIILTTLGAKSGKIRKTPLMRVEHDGKYAAVASLGGAPKHPVWYYNVLGTPAVELQDGAVRKEFTAREVTGEEKAQWWERAVAAYPPYAEYQEKTDREIPVFVLEPAG | not soluble
